Measurements taken from paper PMC9482650, “Quantitative fragmentomics allow affinity mapping of interactomes” (Nature Communications, 2022).

T1: SHROOM4, Q9ULL8
T1 sequence (Q9ULL8 5-102, limits assumed, looked up): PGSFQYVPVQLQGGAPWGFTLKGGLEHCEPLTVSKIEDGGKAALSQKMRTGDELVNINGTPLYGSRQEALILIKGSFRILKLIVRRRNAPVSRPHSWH

T2: MPDZ_2, O75970
T2 sequence (O75970 252-347, limits assumed, looked up): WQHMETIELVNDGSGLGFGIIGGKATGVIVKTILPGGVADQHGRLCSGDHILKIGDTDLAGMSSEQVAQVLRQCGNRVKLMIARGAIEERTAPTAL

T3: PDZD2_4, O15018
T3 sequence (O15018 723-823, limits assumed, looked up): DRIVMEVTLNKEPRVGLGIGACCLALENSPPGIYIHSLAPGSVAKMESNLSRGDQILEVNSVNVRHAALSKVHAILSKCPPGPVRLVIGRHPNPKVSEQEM

T4: CNKSR1, Q969H4
T4 sequence (Q969H4 191-295, limits assumed, looked up): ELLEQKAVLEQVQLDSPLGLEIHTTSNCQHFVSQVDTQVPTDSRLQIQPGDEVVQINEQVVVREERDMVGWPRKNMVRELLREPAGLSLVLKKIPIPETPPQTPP

T5: PDZD8, Q8NEN9
T5 sequence (Q8NEN9 361-459, limits assumed, looked up): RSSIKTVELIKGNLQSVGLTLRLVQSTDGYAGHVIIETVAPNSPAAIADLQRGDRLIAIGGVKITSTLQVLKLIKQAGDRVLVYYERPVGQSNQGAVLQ

T6: APBA3_2, O96018
T6 sequence (O96018 480-570, limits assumed, looked up): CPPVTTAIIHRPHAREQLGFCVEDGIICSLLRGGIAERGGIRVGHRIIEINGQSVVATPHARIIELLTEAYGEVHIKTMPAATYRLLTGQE

T7: PDZD2_3, O15018
T7 sequence (O15018 581-682, limits assumed, looked up): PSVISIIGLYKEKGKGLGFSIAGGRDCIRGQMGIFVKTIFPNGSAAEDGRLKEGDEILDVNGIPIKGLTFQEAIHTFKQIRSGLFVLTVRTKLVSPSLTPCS

T8: PDZRN3_2, Q9UPQ7
T8 sequence (Q9UPQ7 414-513, limits assumed, looked up): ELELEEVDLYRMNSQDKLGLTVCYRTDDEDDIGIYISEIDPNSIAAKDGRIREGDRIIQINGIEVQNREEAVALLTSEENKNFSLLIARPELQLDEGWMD

T9: SIPA1L3, O60292
T9 sequence (O60292 961-1052, limits assumed, looked up): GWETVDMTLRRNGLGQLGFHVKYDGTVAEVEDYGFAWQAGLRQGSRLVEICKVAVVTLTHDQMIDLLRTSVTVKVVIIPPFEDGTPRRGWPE

T10: PREX2_2, Q70Z35
T10 sequence (Q70Z35 672-764, limits assumed, looked up): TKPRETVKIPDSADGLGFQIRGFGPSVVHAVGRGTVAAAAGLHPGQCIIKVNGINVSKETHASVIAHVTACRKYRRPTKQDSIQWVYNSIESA

T11: GRIP1_1, Q9Y3R0
T11 sequence (Q9Y3R0 48-146, limits assumed, looked up): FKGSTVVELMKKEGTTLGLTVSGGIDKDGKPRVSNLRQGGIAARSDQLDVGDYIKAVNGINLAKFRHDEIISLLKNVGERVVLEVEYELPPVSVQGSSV

T12: SYNPO2L, Q9H987
T12 sequence (Q9H987 1-98, limits assumed, looked up): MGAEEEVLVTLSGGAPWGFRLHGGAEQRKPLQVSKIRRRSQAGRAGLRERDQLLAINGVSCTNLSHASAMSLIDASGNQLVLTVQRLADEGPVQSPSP

T13: NHERF1_1, O14745
T13 sequence (O14745 9-104, limits assumed, looked up): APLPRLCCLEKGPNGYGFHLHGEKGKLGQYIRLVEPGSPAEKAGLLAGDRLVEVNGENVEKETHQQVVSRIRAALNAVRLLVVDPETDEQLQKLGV

T14: MPP1, Q00013
T14 sequence (Q00013 66-162, limits assumed, looked up): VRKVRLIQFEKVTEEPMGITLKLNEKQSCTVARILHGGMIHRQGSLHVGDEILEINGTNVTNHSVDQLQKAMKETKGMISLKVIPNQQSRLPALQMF

T15: GIPC1, O14908
T15 sequence (O14908 128-223, limits assumed, looked up): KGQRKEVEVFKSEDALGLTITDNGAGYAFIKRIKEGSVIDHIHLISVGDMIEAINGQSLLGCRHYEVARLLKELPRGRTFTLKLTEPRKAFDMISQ

B1: SARS-CoV2-E, P0DTC4 (peptide)
chain: NLNSSRVPDLLV
B2: HPV35-E6, P27228 (peptide)
chain: SKPTRRETEV
B3: HPV59-E6, Q81964 (peptide)
chain: QRQARSETLV

Target: T1, SHROOM4, Q9ULL8
Experiment: holdup assay
Design: key: below the threshold = too weak to quantify, mostly under pKd 3.1 to 4
Details: plain residues with an end cap or a label only (N-terminal biotin on a linker: none)

Binder	pKd
B1	below the threshold

Same assay, conditions: plain residues with an end cap or a label only (N-terminal biotin on a linker: ttds)

Binder	pKd
B2	below the threshold
B3	below the threshold

Target: T2, MPDZ_2, O75970
Experiment: holdup assay
Design: key: below the threshold = too weak to quantify, mostly under pKd 3.1 to 4
Details: plain residues with an end cap or a label only (N-terminal biotin on a linker: none)

Binder	pKd
B1	below the threshold

Same assay, conditions: plain residues with an end cap or a label only (N-terminal biotin on a linker: ttds)

Binder	pKd
B2	below the threshold
B3	below the threshold

Target: T3, PDZD2_4, O15018
Experiment: holdup assay
Design: key: below the threshold = too weak to quantify, mostly under pKd 3.1 to 4
Details: plain residues with an end cap or a label only (N-terminal biotin on a linker: ttds)

Binder	pKd
B2	below the threshold
B3	below the threshold

Target: T4, CNKSR1, Q969H4
Experiment: holdup assay
Design: key: below the threshold = too weak to quantify, mostly under pKd 3.1 to 4
Details: plain residues with an end cap or a label only (N-terminal biotin on a linker: none)

Binder	pKd
B1	below the threshold

Same assay, conditions: plain residues with an end cap or a label only (N-terminal biotin on a linker: ttds)

Binder	pKd
B3	below the threshold

Target: T5, PDZD8, Q8NEN9
Experiment: holdup assay
Design: key: below the threshold = too weak to quantify, mostly under pKd 3.1 to 4
Details: plain residues with an end cap or a label only (N-terminal biotin on a linker: none)

Binder	pKd
B1	below the threshold

Same assay, conditions: plain residues with an end cap or a label only (N-terminal biotin on a linker: ttds)

Binder	pKd
B2	below the threshold
B3	below the threshold

Target: T6, APBA3_2, O96018
Experiment: holdup assay
Design: key: below the threshold = too weak to quantify, mostly under pKd 3.1 to 4
Details: plain residues with an end cap or a label only (N-terminal biotin on a linker: none)

Binder	pKd
B1	below the threshold

Same assay, conditions: plain residues with an end cap or a label only (N-terminal biotin on a linker: ttds)

Binder	pKd
B2	below the threshold
B3	below the threshold

Target: PARD3_1, Q8TEW0
Sequence (Q8TEW0 264-372): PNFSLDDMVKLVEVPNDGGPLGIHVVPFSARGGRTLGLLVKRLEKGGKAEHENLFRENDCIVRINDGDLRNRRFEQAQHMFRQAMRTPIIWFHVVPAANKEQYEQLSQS
Experiment: holdup assay
Design: key: below the threshold = too weak to quantify, mostly under pKd 3.1 to 4
Details: plain residues with an end cap or a label only (N-terminal biotin on a linker: none)

Binder	pKd
B1	below the threshold

Same assay, conditions: plain residues with an end cap or a label only (N-terminal biotin on a linker: ttds)

Binder	pKd
B2	below the threshold
B3	below the threshold

Target: PREX1_1, Q8TCU6
Sequence (Q8TCU6 608-718): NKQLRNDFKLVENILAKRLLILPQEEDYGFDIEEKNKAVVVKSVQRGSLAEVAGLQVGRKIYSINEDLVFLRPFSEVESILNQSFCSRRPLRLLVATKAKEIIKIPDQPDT
Experiment: holdup assay
Design: key: below the threshold = too weak to quantify, mostly under pKd 3.1 to 4
Details: plain residues with an end cap or a label only (N-terminal biotin on a linker: none)

Binder	pKd
B1	below the threshold

Same assay, conditions: plain residues with an end cap or a label only (N-terminal biotin on a linker: ttds)

Binder	pKd
B2	below the threshold
B3	below the threshold

Target: LMO7, Q8WWI1
Sequence (Q8WWI1 1037-1138): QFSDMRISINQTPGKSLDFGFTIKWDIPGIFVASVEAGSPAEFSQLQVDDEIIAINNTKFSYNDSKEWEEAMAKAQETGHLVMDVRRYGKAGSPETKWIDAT
Experiment: holdup assay
Design: key: below the threshold = too weak to quantify, mostly under pKd 3.1 to 4
Details: plain residues with an end cap or a label only (N-terminal biotin on a linker: none)

Binder	pKd
B1	below the threshold

Same assay, conditions: plain residues with an end cap or a label only (N-terminal biotin on a linker: ttds)

Binder	pKd
B3	below the threshold

Target: PDZRN4_2, Q6ZMN7
Sequence (Q6ZMN7 389-498): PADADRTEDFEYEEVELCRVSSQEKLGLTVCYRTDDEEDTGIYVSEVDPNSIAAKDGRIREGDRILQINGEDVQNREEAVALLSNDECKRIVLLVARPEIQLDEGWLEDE
Experiment: holdup assay
Design: key: below the threshold = too weak to quantify, mostly under pKd 3.1 to 4
Details: plain residues with an end cap or a label only (N-terminal biotin on a linker: none)

Binder	pKd
B1	below the threshold

Same assay, conditions: plain residues with an end cap or a label only (N-terminal biotin on a linker: ttds)

Binder	pKd
B2	below the threshold
B3	below the threshold

Target: T7, PDZD2_3, O15018
Experiment: holdup assay
Design: key: below the threshold = too weak to quantify, mostly under pKd 3.1 to 4
Details: plain residues with an end cap or a label only (N-terminal biotin on a linker: none)

Binder	pKd
B1	below the threshold

Same assay, conditions: plain residues with an end cap or a label only (N-terminal biotin on a linker: ttds)

Binder	pKd
B2	below the threshold
B3	below the threshold

Target: T8, PDZRN3_2, Q9UPQ7
Experiment: holdup assay
Design: key: below the threshold = too weak to quantify, mostly under pKd 3.1 to 4
Details: plain residues with an end cap or a label only (N-terminal biotin on a linker: none)

Binder	pKd
B1	below the threshold

Same assay, conditions: plain residues with an end cap or a label only (N-terminal biotin on a linker: ttds)

Binder	pKd
B2	3.57
B3	below the threshold

Target: GIPC3, Q8TF64
Sequence (Q8TF64 107-202): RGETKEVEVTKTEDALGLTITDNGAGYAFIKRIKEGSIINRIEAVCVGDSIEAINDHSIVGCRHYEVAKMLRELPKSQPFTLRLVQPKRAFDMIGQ
Experiment: holdup assay
Design: key: below the threshold = too weak to quantify, mostly under pKd 3.1 to 4
Details: plain residues with an end cap or a label only (N-terminal biotin on a linker: none)

Binder	pKd
B1	below the threshold

Same assay, conditions: plain residues with an end cap or a label only (N-terminal biotin on a linker: ttds)

Binder	pKd
B3	below the threshold

Target: T9, SIPA1L3, O60292
Experiment: holdup assay
Design: key: below the threshold = too weak to quantify, mostly under pKd 3.1 to 4
Details: plain residues with an end cap or a label only (N-terminal biotin on a linker: none)

Binder	pKd
B1	below the threshold

Same assay, conditions: plain residues with an end cap or a label only (N-terminal biotin on a linker: ttds)

Binder	pKd
B2	below the threshold
B3	below the threshold

Target: T10, PREX2_2, Q70Z35
Experiment: holdup assay
Design: key: below the threshold = too weak to quantify, mostly under pKd 3.1 to 4
Details: plain residues with an end cap or a label only (N-terminal biotin on a linker: none)

Binder	pKd
B1	below the threshold

Same assay, conditions: plain residues with an end cap or a label only (N-terminal biotin on a linker: ttds)

Binder	pKd
B2	3.62
B3	below the threshold

Target: T11, GRIP1_1, Q9Y3R0
Experiment: holdup assay
Design: key: below the threshold = too weak to quantify, mostly under pKd 3.1 to 4
Details: plain residues with an end cap or a label only (N-terminal biotin on a linker: none)

Binder	pKd
B1	below the threshold

Same assay, conditions: plain residues with an end cap or a label only (N-terminal biotin on a linker: ttds)

Binder	pKd
B2	below the threshold
B3	below the threshold

Target: T12, SYNPO2L, Q9H987
Experiment: holdup assay
Design: key: below the threshold = too weak to quantify, mostly under pKd 3.1 to 4
Details: plain residues with an end cap or a label only (N-terminal biotin on a linker: none)

Binder	pKd
B1	below the threshold

Same assay, conditions: plain residues with an end cap or a label only (N-terminal biotin on a linker: ttds)

Binder	pKd
B2	below the threshold
B3	below the threshold

Target: T13, NHERF1_1, O14745
Experiment: holdup assay
Design: key: below the threshold = too weak to quantify, mostly under pKd 3.1 to 4
Details: plain residues with an end cap or a label only (N-terminal biotin on a linker: none)

Binder	pKd
B1	below the threshold

Same assay, conditions: plain residues with an end cap or a label only (N-terminal biotin on a linker: ttds)

Binder	pKd
B2	below the threshold
B3	below the threshold

Target: DVL2, O14641
Sequence (O14641 260-359): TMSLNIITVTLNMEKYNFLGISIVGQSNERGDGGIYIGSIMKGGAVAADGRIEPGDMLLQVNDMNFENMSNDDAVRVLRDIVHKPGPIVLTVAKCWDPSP
Experiment: holdup assay
Design: key: below the threshold = too weak to quantify, mostly under pKd 3.1 to 4
Details: plain residues with an end cap or a label only (N-terminal biotin on a linker: none)

Binder	pKd
B1	below the threshold

Same assay, conditions: plain residues with an end cap or a label only (N-terminal biotin on a linker: ttds)

Binder	pKd
B2	below the threshold
B3	below the threshold

Target: T14, MPP1, Q00013
Experiment: holdup assay
Design: key: below the threshold = too weak to quantify, mostly under pKd 3.1 to 4
Details: plain residues with an end cap or a label only (N-terminal biotin on a linker: none)

Binder	pKd
B1	below the threshold

Same assay, conditions: plain residues with an end cap or a label only (N-terminal biotin on a linker: ttds)

Binder	pKd
B2	below the threshold
B3	6.03

Target: T15, GIPC1, O14908
Experiment: holdup assay
Design: key: below the threshold = too weak to quantify, mostly under pKd 3.1 to 4
Details: plain residues with an end cap or a label only (N-terminal biotin on a linker: none)

Binder	pKd
B1	below the threshold

Same assay, conditions: plain residues with an end cap or a label only (N-terminal biotin on a linker: ttds)

Binder	pKd
B2	4.69
B3	below the threshold
